We go through one substance from patent US20040014707A1.

This assay concerns the target PA specific receptor on A549 human lung epithelial cells.

EGFP-PA32 fusion protein returned a fold signal over non-specific EGFP binding of 4 fold.
